Assay [1] deals with human Hsp90a (heat shock protein 90 alpha), purified full-length (human) (UniProt P07900). The experiment in a line: peptide or protein array.
The target of assay [2] is thyroid hormone receptor beta (TRb), His-tagged, from pETSUMO-TRb (UniProt P10828). The assay can be described thus: peptide or protein array.

For the substance “thyroid hormone receptor beta (TRb), His-tagged, from pETSUMO-TRb (from UniProt P10828 1-461)”, in assay [1], the EC50 is 1240 nM. “human Hsp90a (heat shock protein 90 alpha), purified full-length (from UniProt P07900 1-732) (natural protein)” returned an EC50 in assay [2] of 124 nM.

The term EC50 denotes the concentration needed to bring the measured effect to its halfway point. High values mean a need for much substance, low ones an effect from little substance.

The values are drawn from article PMC9404468.
